According to CN113563467A (SHANGHAI PUMING BIOLOGICAL TECH CO LTD, dated 2021):

Assays:
[1] = biological target: T1, 人C5蛋白 in 人血清补体 (Normal Human Serum Complement, Quidel, A112) (human, UniProt P01031 19-1676); experiment: cell-based or functional assay
[2] = biological target: T1, 人C5蛋白 in 人血清补体 (Normal Human Serum …); experiment: cell-based or functional assay; remark: listed apart in the source

T1 sequence (P01031 19-1676 limits assumed): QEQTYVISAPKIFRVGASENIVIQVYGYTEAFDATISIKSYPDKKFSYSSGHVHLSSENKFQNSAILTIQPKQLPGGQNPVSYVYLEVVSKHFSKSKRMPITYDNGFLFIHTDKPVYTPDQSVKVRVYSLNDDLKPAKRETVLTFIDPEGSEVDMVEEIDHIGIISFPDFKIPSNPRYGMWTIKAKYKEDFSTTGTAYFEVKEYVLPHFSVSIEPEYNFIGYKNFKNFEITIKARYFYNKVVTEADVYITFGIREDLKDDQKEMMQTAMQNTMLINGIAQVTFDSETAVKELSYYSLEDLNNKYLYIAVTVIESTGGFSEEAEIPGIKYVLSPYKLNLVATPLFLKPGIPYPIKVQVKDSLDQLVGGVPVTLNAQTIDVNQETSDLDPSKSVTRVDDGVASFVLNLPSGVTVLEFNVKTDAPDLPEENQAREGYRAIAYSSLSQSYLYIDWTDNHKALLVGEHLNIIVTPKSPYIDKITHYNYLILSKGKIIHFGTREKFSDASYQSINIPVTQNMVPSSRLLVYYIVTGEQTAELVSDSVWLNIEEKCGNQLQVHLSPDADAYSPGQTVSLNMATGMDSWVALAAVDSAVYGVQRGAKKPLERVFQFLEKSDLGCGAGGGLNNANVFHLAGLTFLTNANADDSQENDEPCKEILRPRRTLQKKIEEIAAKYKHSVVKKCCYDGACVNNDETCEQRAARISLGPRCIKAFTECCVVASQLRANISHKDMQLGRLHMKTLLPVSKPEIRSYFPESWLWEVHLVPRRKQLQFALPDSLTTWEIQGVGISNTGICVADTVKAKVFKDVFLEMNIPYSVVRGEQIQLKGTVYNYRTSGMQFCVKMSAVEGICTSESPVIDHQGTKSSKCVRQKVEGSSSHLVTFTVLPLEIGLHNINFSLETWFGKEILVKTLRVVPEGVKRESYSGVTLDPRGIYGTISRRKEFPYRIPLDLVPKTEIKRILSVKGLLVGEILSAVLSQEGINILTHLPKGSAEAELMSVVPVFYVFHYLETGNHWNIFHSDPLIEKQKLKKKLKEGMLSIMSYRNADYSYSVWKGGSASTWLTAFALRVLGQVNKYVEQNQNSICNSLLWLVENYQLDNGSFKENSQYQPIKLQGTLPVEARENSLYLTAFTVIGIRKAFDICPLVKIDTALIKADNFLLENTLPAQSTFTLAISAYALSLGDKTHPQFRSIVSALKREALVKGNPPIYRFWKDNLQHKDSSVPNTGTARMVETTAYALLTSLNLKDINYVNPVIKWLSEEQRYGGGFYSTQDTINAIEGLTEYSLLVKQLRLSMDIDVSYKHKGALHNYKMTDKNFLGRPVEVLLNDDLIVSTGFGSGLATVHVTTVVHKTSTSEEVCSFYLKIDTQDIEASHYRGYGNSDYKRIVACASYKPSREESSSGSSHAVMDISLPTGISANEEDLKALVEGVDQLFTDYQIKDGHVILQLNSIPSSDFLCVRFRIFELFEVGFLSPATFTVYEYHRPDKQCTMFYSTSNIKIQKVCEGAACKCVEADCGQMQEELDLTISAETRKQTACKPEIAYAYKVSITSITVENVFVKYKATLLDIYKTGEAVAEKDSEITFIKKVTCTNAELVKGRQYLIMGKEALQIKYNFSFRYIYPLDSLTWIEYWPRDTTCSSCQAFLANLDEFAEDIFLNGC

EC50(ug/ml), 补体依赖性细胞毒性(CDC)阻断分析 [1]: 2.63 µg/mL
IC50(ug/ml), 补体依赖性溶血实验 [2]: 8.73 µg/mL
B1: Ref1 (对照抗体依库珠单抗可变区，hIgG1/hIgG-Kappa) (antibody, V domains shown)
VH: QVQLVQSGAEVKKPGASVKVSCKASGYIFSNYWIQWVRQAPGQGLEWMGEILPGSGSTEYTENFKDRVTMTRDTSTSTVYMELSSLRSEDTAVYYCARYFFGSSPNWYFDVWGQGTLVTVSS
VL: DIQMTQSPSSLSASVGDRVTITCGASENIYGALNWYQQKPGKAPKLLIYGATNLADGVPSRFSGSGSGTDFTLTISSLQPEDFATYYCQNVLNTPLTFGQGTKVEIKR
